Source: article PMC4865677, “Dataset of gene cloning and gel filtration chromatography of R-est6” (Data in Brief, 2016)

Molecular target: the molecule itself
Assay: SEC; Ni-NTA affinity purified R-est6 loaded on a Superdex 75 column calibrated with known molecular weight markers; protein in peak 1 and peak 2 confirmed as R-est6 on SDS-PAGE

B1: R-est6, family 6 carboxylesterase from Methylococcus capsulatus (bath) (enzyme, Methylococcus capsulatus (bath strain), UniProt Q60CN0 1-336, looked up)
chain: MSTFDRGFARLLLEICRYTYAKAFALAPEEGDALQWIEQQGGKPDPASLEPIRGGDTSVACVFRYPDKNVVAYMGTKTEFDNAVNAKDSIEDWLNNFRAAPVPFKLGKEHLGLDKEVELPGRVHAGFLSELKAVQAKVIDVLSKNGGKDKPLYLTGHSQGGAEATLATVALLAGGFKVAATYTFAAPRAGDRTFADAVPAEFPFHRIEFGDDIVPHVPPTLLSRWVKTLVTVPRHLPLKRFGVPVKVNEFLELSVHDLGYVGVGRLCYGNHESGQLHVDMSVRQEASLFLGRLTRLLRHPEHWAEHHHLAGTRAEVSAGKKGNYTALVSDFPIVEG
notes: also called MCA0075
Does B1 bind?
Result: binds
